Data published in patent publication US20050181059A1, “Nanoparticulate therapeutic biologically active agents” (Spherics, Inc., priority 2003, published 2005).

Experiments:
[1] = in vivo
Method: In a separate study, the bioavailability for non-encapsulated insulin was tested.

[2] = SDS-PAGE stability following micronization; type: physicochemical; settings: denaturing, non-reducing; resolubilized in 10 mM PBS
[3] = BCA analysis of protein concentration of redissolved hIL-12; type: physicochemical; settings: BCA assay, resolubilized in 10 mM PBS
Method: Recombinant Human Interleukin-12 (hIL-112) was obtained from Genetics Institute and tBA from EM Science. hIL-12 (500 microliters at 2.79 mg/ml) was injected into tBA (5 ml). A fine precipitate formed immediately. The dispersion was rapidly frozen in liquid nitrogen (15 minutes) and the solvent removed by lyophilization for 48 hours. The resulting powder was visualized by SEM. The stability following micronization was assayed by SDS-PAGE (Invitrogen) and BCA (Pierce) assay of hIL-12 resolubilized in 10 mM PBS according to manufacturer's instructions.
SDS-PAGE (denaturing, non-reducing) analysis was used to compare tBA-treated hIL-12 particles with the control stock, with and without lyophilization. […] This was confirmed by […] acid (BCA) analysis of protein concentration of hIL-12 redissolved after lyophilization alone, or after micronization followed by lyophilization. The lyophilized-only protein was 99% soluble, while the micronized protein was 71% soluble. Thus a disagreggating agent should be included to prevent aggregation when micronizing hIL-12 using tBA.

Substance	bioavailability [1]	aggregation by SDS-PAGE [2]	soluble protein after redissolving [3] [%]
Non-encapsulated insulin: non-encapsulated insulin tested for bioavailability in a separate study	less than 1%		
lyophilized-only hIL-12: hIL-12 control stock redissolved after lyophilization alone		did not produce irreversible aggregation	99
micronized hIL-12: Recombinant Human Interleukin-12 injected into tBA, frozen and lyophilized		irreversibly denatured and aggregated into dimers, trimers, and aggregates too large to enter the gel	71
